4 molecules from paper PMC5526789, “Structure of Full-Length SMC and Rearrangements Required for Chromosome Organization” (Molecular Cell, 2017) can be followed below.

The target in data set [1] is BsSmcH-CC8(N634C) (Bacillus subtilis) (UniProt P51834). As to the kind of experiment: cross-linking; subunit exchange: equal amounts of two purified single-cysteine proteins mixed on ice, incubated at 37°C in 50 mM Tris-HCl pH 7.4, 200 mM NaCl, 1 mM TCEP; aliquots cross-linked with 200 µM BMOE (R558C to N634C at the hinge dimer interface); SDS-PAGE and Agilent 2100 Bioanalyzer; dimer to monomers.

In data set [2] the target is Smc(D193C, mH, E1118Q)-HaloTag (Bacillus subtilis) (UniProt P51834). As to the kind of experiment: cross-linking; in vivo cysteine cross-linking: intact B. subtilis cells grown in SMG, 0.5 mM BMOE on ice; Smc-HaloTag labelled with HaloTag-TMR, SDS-PAGE, in-gel fluorescence; S152C and D193C report juxtaposed (disengaged) heads of the rod, K1151C ATP-engaged heads, A715C the arm/arm interface near the hinge.

Data set [3] concerns the target Smc(S152C, mH, E1118Q)-HaloTag (Bacillus subtilis) (UniProt P51834). Described as above.
Data set [4] deals with the molecule itself. The experiment in a line: crystal structure; BsSmcCC2, hanging drop, 4°C, PEG 3350, Tris pH 8, MPD, calcium acetate; space group P1, two dimers in the asymmetric unit.

“BsSmcH-CC8(R558C) (from UniProt P51834 519-637) (domain or fragment)”: in data set [1], the half-life of the hinge dimer (subunit exchange) is 49 min.

“Smc(D193C, mH, E1118Q)-HaloTag (from UniProt P51834 1-1186) (natural protein)” returned a cross-linking relative to wild type (% of wild-type levels) in data set [2] of 20.

Take “Smc(S152C, mH, E1118Q)-HaloTag (from UniProt P51834 1-1186) (natural protein)”: in data set [3], the cross-linking relative to wild type (% of wild-type levels) was 20.

B1: BsSmcCC2 (domain or fragment, Bacillus subtilis)
chain: EKVQMAKEEELAESSAISAKEAKIEDTRDKIQALDESVDELQQVLLVTSEELEKLEGRKEVLKERKKNAVQNQEQLEEAIVQFQQKETVLKEELSKQEAVFETLQAEVKQLRAQVKEKQQALSLHNENVEEKIESGGSGGSRLTKQKQTQSSTKESLSNELTELKIAAAKKEQACKGEEDNLARLKKELTETELALKEAKEDLSFLTSEMSSSTSGEEKLEEAAKHKLNDKTKTIELIALRRDQRIKLQHGLDTYERELKEMKRLYKQKTTLLKDEEV
notes: Smc of Bacillus subtilis, residues 246-379 (N-terminal coiled-coil helix); linker; Smc of Bacillus subtilis, residues 793-929 (C-terminal coiled-coil helix); Selenomethionine-labelled protein was used for the SAD data; also called Smc middle segment; Bs Smc (246-379)/SGGSGGS/(793-929); source: E. coli BL21[DE3], purified (His-Trap, MonoQ, TEV cleavage, Superdex 200); not shown: His6, N-terminal, …
As for B1, the binding result in data set [4] is reported as “binds”.
